According to article PMC8983781:

Assays:
[1] = biological target: SP-C L188Q with the site 2 mutations (human) (UniProt P11686); assay: co-IP; 293T cells co-transfected with an SP-C construct and one co-chaperone (BiP co-transfected in the GRP170 experiments; 20 mM NEM in wash and lysis for ERdj5); NP-40 lysates 24 h after transfection, immunoprecipitated with anti-SP-C overnight at 4 °C, Protein A agarose, washed with buffer containing 0.4 M NaCl; co-chaperones detected by western blot; in Fig. 4 signals normalised to SP-C and expressed as percent of parental L188Q
[2] = biological target: 3HA-tagged SP-C L188Q (human) (UniProt P11686)
[3] = substrate: SP-C L188Q with the site 2 mutations (human) (UniProt P11686); assay: co-IP; 293T cells co-transfected with an SP-C construct and one co-chaperone (BiP co-transfected in the GRP170 experiments; 20 mM NEM in wash and lysis for ERdj5); NP-40 lysates 24 h after transfection, immunoprecipitated with anti-SP-C overnight at 4 °C, Protein A agarose, washed with buffer containing 0.4 M NaCl; co-chaperones detected by western blot; in Fig. 4 signals normalised to SP-C and expressed as percent …

Work on “ERdj4-3HA (mouse) (from UniProt Q9QYI6 24-222) (natural protein)” yielded a percent reduction of binding against parental L188Q [1] of 70%.

With “wild-type surfactant protein C (SP-C) proprotein, untagged (from UniProt P11686 1-58) (natural protein)” the percent of wild-type SP-C that is palmitoylated (a measure of transport to the Golgi) when co-expressed with the L188Q mutant; 17.6% when expressed alone [2] was 10%.

B1: GRP170 (human) (natural protein)
chain: LAVMSVDLGSESMKVAIVKPGVPMEIVLNKESRRKTPVIVTLKENERFFGDSAASMAIKNPKATLRYFQHLLGKQADNPHVALYQARFPEHELTFDPQRQTVHFQISSQLQFSPEEVLGMVLNYSRSLAEDFAEQPIKDAVITVPVFFNQAERRAVLQAARMAGLKVLQLINDNTATALSYGVFRRKDINTTAQNIMFYDMGSGSTVCTIVTYQMVKTKEAGMQPQLQIRGVGFDRTLGGLEMELRLRERLAGLFNEQRKGQRAKDVRENPRAMAKLLREANRLKTVLSANADHMAQIEGLMDDVDFKAKVTRVEFEELCADLFERVPGPVQQALQSAEMSLDEIEQVILVGGATRVPRVQEVLLKAVGKEELGKNINADEAAAMGAVYQAAALSKAFKVKPFVVRDAVVYPILVEFTREVEEEPGIHSLKHNKRVLFSRMGPYPQRKVITFNRYSHDFNFHINYGDLGFLGPEDLRVFGSQNLTTVKLKGVGDSFKKYPDYESKGIKAHFNLDESGVLSLDRVESVFETLVEDSAEEESTLTKLGNTISSLFGGGTTPDAKENGTDTVQEEEESPAEGSKDEPGEQVELKEEAEAPVEDGSQPPPPEPKGDATPEGEKATEKENGDKSEAQKPSEKAEAGPEGVAPAPEGEKKQKPARKRRMVEEIGVELVVLDLPDLPEDKLAQSVQKLQDLTLRDLEKQEREKAANSLEAFIFETQDKLYQPEYQEVSTEEQREEISGKLSAASTWLEDEGVGATTVMLKEKLAELRKLCQGLFFRVEERKKWPERLSALDNLLNHSSMFLKGARLIPEMDQIFTEVEMTTLEKVINETWAWKNATLAEQAKLPATEKPVLLSKDIEAKMMALDREVQYLLNKAKFTKPRPRPKDKNGTRAEPPLNASASDQGEKVIPPAGQTEDAEPISEPEKVETGSEPGDTEPLELGGPGAEPEQKEQSTGQKRPLKNDEL
Work on B1 yielded a percent of the binding to parental L188Q [3] of 30%.

B2: ERdj5 (mouse) (natural protein)
chain: DQNFYSLLGVSKTASSREIRQAFKKLALKLHPDKNPNNPNAHGDFLKINRAYEVLKDEDLRKKYDKYGEKGLEDNQGGQYESWSYYRYDFGIYDDDPEIITLERREFDAAVNSGELWFVNFYSPGCSHCHDLAPTWREFAKEVDGLLRIGAVNCGDDRMLCRMKGVNSYPSLFIFRSGMAAVKYNGDRSKESLVAFAMQHVRSTVTELSTGNFVNAIETAFAAGVGWLITFCSKGEDCLTSQTRLRLSGMLDGLVNVGWVDCDAQDSLCKSLDTTASTTAYFPPGATLNDREKSSVLFLNSLDAKEIYMEIIHNLPDFELLSANQLEDRLAHHRWLVFFHFGKNENANDPELKKLKTLLKNEHIQVGRFDCSSAPGICSDLYVFQPCLAVFKGQGTKEYEIHHGKKILYDILAFAKESVNSHVTTLGPQNFPASDKEPWLVDFFAPWCPPCRALLPELRKASTLLYGQLKVGTLDCTIHEGLCNMYNIQAYPTTVVFNQSSIHEYEGHHSAEQILEFIEDLRNPSVVSLTPSTFNELVKQRKHDEVWMVDFYSPWCHPCQVLMPEWKRMARTLTGLINVGSVDCQQYHSFCTQENVQRYPEIRFYPQKSSKAYQYHSYNGWNRDAYSLRSWGLGFLPQASIDLTPQTFNEKVLQGKTHWVVDFYAPWCGPCQNFAPEFELLARMIKGKVRAGKVDCQAYPQTCQKAGIKAYPSVKLYQYERAKKSIWEEQINSRDAKTIAALIYGKLETLQSQVKRNKDEL
Molecule B2 has a percent reduction of binding against parental L188Q [3] of 30%.
